# Data as given in IntAct's records for PubMed 20111005.
# B1: CCAAT/enhancer-binding protein beta (Gallus gallus (Chicken)), Q05826 (parent)
# chain: MQRLVAWDAACLPIQPPAFKSMEVANFYYEADCLAALNKLHPRAAGGRSMTELTVGDHERAIDFSPYLDPLAASQQPAQPPPPAAAAGGNFEPACSSGGQDFLSDLFAEDYKGSGGGKKPDYTYISLTRHGHPCGSQSHKPGVLPGCFPPQIVETKVEPVFETLDSCKGPRKEEGGAGPGPGGMSSPYGSTVRSYLGYQSVPSGSSGNLSTSSSSSPPGTPNPSESSKSAAGAGGYSGPPAGKNKPKKCVDKHSDEYKLRRERNNIAVRKSRDKAKMRNLETQHKVLELTAENERLQKKVEQLSRELSTLRNLFKQLPEPLLASSPRC
# Variants of: B1
# Conditions: with smca2_human SMARCA2, P51531
# Chain of smca2_human SMARCA2, P51531 (P51531 whole entry): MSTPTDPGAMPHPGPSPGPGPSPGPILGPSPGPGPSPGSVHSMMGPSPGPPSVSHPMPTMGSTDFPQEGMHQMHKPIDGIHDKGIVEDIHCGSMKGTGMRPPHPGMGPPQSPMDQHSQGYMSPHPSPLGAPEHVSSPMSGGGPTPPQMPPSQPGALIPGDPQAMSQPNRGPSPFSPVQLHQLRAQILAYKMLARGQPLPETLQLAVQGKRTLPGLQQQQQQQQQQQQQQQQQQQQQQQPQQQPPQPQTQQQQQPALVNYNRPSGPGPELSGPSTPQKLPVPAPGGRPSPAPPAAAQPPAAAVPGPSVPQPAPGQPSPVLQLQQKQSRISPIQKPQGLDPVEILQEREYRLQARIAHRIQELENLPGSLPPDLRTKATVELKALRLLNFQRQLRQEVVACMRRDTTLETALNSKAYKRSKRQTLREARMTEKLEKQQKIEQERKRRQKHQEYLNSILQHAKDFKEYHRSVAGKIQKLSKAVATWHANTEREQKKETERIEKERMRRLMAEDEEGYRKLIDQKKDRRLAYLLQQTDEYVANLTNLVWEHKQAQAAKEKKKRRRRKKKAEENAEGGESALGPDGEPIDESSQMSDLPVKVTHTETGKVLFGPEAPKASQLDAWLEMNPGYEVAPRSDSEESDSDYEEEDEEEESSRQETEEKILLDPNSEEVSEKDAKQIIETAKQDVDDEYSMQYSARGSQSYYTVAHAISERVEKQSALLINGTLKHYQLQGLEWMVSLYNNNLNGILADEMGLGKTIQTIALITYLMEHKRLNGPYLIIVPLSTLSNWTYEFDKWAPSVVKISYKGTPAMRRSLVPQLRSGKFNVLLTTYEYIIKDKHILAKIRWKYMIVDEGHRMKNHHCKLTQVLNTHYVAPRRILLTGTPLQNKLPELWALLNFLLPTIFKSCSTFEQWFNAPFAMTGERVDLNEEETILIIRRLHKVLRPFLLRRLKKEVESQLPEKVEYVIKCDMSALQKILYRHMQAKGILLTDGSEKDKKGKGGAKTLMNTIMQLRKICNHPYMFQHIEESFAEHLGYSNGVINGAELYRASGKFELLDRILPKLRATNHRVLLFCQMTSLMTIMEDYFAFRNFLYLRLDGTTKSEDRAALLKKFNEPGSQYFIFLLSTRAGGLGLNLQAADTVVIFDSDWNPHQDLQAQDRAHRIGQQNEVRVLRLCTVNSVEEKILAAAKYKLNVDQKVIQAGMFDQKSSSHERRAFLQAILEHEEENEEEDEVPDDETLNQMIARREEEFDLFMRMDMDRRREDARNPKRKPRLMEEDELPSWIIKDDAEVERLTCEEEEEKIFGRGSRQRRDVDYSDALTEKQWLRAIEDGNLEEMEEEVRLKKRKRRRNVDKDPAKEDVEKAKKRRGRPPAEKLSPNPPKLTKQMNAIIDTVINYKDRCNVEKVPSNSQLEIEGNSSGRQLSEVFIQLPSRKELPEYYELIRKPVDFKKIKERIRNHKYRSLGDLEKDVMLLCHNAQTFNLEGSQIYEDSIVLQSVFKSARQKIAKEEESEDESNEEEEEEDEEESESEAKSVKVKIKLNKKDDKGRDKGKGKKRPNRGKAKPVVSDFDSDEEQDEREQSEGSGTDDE
row,effect of a mutation on the interaction,Variant
1,decreasing interaction,R3L
